These results are taken from article PMC9929924, “Phosphorylation of the receptor protein Pex5p modulates import of proteins into peroxisomes” (Biological Chemistry, 2022).

Ends that are not written are not given here. * marks the point of attachment. FITC = O=C1OC2(c3ccc(O)cc3Oc3cc(O)ccc32)c2ccc(NC(=S)*)cc21

Test [1] deals with Pex5p^2D cells. Put plainly: Fluorescence microscopy, peroxisomal import of GFP-tagged proteins in Pex5p^2D-expressing cells. It is filed as cell-based, S. cerevisiae. On the set-up: key to import phenotype category: showed a reduced peroxisomal import and constitute category 1; category 2 characterized by no peroxisomal import; without a noticeable effect on import in Pex5p^2D cells (category 3). As to conditions: GFP-tagged protein, Pex5p^2D-expressing cells; Pex3p-mCherry marker; SD medium, 2% glucose; assessed manually. The text has this:
Query strains were constructed on the basis of an automated mating compatible strain. The query strains contained a peroxisomal marker (Pex3p-mCherry::HIS), a deletion of PEX5 (pex5Δ::NAT) and a plasmid expressing WT or mutant PEX5 (PEX5^WT, PEX5^2D or PEX5^2A). Using an automated mating method ([Cohen and Schuldiner 2011]; [Tong and Boone 2006]), the query strains were crossed with a NOP1pr-N′-GFP-peroxi library ([Dahan et al. 2017]). The NOP1pr-N′-GFP-peroxisomal library is a collection of ∼90 strains containing all the known peroxisomal proteins together with potential peroxisomal proteins and controls, genomically tagged with GFP at their N-terminus and expressed under the generic constitutive SpNOP1 promoter. To perform the manipulations in high-density format we used a RoToR bench top colony arrayer (Singer Instruments). In short: mating was performed on rich medium plates, and selection for diploid cells was performed on SD(MSG)-HIS-URA plates containing Geneticin (200 μg ml^−1) and Nourseothricin (200 μg ml^−1). Sporulation was induced by transferring cells to nitrogen starvation media plates for 7 days. Haploid cells containing the desired mutations were selected by transferring cells to SD-URA-HIS-LYS-ARG-LEU plates containing Geneticin and Nourseothricin (same concentrations as above), alongside the toxic amino acid derivatives Canavanine and Thialysine (Sigma-Aldrich) to select against remaining diploids and select for spores with an α mating type. A similar method was used to generate control, pex5Δ, and pex8Δ strains expressing GFP-Mdh3p (Supplementary Figure 4D), in which the query strain contained a peroxisomal marker (Pex3p-mCherry::NAT) and URA3::GFP-Mdh3p. This query strain was crossed with three strains from the mini peroxisomal deletion library ([Gabay-Maskit et al. 2020]): a control (no deletion), pex5Δ, and pex8Δ strain, all of which contain KAN (Geneticin) resistance.
The yeast collections were visualized using an automated microscopy setup as described previously ([Breker et al. 2013]). In short: cells were transferred from agar plates into 384-well polystyrene plates (Greiner) for growth in liquid media using the RoToR arrayer robot. Liquid cultures were grown in a LiCONiC incubator, overnight at 30 °C in SD-URA-HIS medium. A JANUS liquid handler (PerkinElmer) connected to the incubator was used to dilute the strains to an OD600 of ∼0.2 into plates containing SD medium (6.7 g l^−1 yeast nitrogen base and 2% glucose) supplemented with complete amino acids. Plates were incubated at 30 °C for 4 h. The cultures in the plates were then transferred by the liquid handler into glass-bottom 384-well microscope plates (Matrical Bioscience) coated with Concanavalin A (Sigma-Aldrich). After 20 min, cells were washed three times with SD-Riboflavin complete medium to remove non-adherent cells and to obtain a cell monolayer. The plates were then transferred to the ScanR automated inverted fluorescent microscope system (Olympus) using a robotic swap arm (Hamilton). Images of cells in the 384-well plates were recorded in the same liquid as the washing step at 24 °C using a 60× air lens (NA 0.9) and with an ORCA-ER charge-coupled device camera (Hamamatsu). Images were acquired in two channels: GFP (excitation filter 490/20 nm, emission filter 535/50 nm) and mCherry (excitation filter 572/35 nm, emission filter 632/60 nm). All images were taken at a single focal plane. The same protocol was used to visualize fluorescence signals in GFP-Mdh3p-expressing control, pex5Δ, and pex8Δ strains (Supplementary Figure 4D).

For test [2], the system named is yeast peroxisomes. As to conditions: under both glucose and oleate condition; ref Rosenthal et al. 2020; cited from earlier work. The source says: We classified PTS1-proteins into three different categories according to the observed import phenotypes. […] In contrast, peroxisomal NADP-dependent isocitrate dehydrogenase (Idp3p; Figure 4C) and malate synthase 1 (Mls1p; Figure 4D) belong to category 2 characterized by no peroxisomal import (Supplementary Fi ...

Test [3] concerns pex8Δ cells. As to conditions: ref Rehling et al. 2000; cited from earlier work. The source says:
Among the proteins with reduced peroxisomal import in Pex5p^2D cells (category 1) is Pex8p, an essential component of the import machinery for peroxisomal matrix proteins and required for the biogenesis of functional peroxisomes ([Agne et al. 2003]; [Rehling et al. 2000]), which may raise the question if the reduced import of most PTS1 proteins in Pex5p^2D cells is a consequence of decreased peroxisomal Pex8p levels.

For test [4], the target named is T1, Pex5p wildtype, recombinant His6-tagged (HisPex5p) (S. cerevisiae, UniProt P35056 1-612).
T1 construct: Pex5p, PTS1 receptor of Saccharomyces cerevisiae, UniProtKB P35056, full length; No cleavage of the His tag is described; the native MS mass of the monomer is printed as 71.459 kDa; also called Pex5p^WT; source: E. coli BL21 RIL (DE3), purified (Ni-NTA, MonoQ anion exchange, SEC)
T1 sequence (looked up): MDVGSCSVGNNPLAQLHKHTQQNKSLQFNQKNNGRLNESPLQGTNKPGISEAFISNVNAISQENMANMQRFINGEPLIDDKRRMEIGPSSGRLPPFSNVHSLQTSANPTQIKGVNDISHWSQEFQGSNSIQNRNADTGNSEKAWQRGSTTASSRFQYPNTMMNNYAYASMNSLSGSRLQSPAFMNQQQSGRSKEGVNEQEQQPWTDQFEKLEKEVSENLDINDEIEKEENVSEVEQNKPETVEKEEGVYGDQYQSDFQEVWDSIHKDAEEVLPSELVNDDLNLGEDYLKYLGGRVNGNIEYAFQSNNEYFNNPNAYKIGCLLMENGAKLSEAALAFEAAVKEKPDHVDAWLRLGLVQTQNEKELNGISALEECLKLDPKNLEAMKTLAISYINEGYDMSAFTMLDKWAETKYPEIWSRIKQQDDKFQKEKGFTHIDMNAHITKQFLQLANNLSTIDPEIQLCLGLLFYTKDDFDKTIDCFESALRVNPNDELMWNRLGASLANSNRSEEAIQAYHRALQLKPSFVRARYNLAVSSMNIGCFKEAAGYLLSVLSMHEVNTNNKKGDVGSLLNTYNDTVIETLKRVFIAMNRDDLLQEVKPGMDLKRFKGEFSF
In words: fluorescence polarisation; fluorescence anisotropy; 10 nM FITC-labelled peptide, serial dilutions of Pex5p variant 1.5 nM to 6.6 µM; 50 mM HEPES pH 7.5, 150 mM NaCl; one-site binding-saturation fit. The note with it: both partners purified. A general note: Fluorescence polarisation rises when a labelled molecule tumbles more slowly, as on binding a larger partner.

For test [5], the target named is T2, Pex5p-S507/523D, recombinant His6-tagged phospho-mimicking mutant (S. cerevisiae, UniProt P35056 1-612, S507D | S523D).
T2 construct: Pex5p, PTS1 receptor of Saccharomyces cerevisiae, UniProtKB P35056, full length, with S507D and S523D; No cleavage of the His tag is described; the native MS mass of the monomer is printed as 71.515 kDa; also called Pex5p^2D; Pex5p-S507D/523D; source: E. coli BL21 RIL (DE3), purified (Ni-NTA, MonoQ anion exchange, SEC)
T2 sequence (looked up): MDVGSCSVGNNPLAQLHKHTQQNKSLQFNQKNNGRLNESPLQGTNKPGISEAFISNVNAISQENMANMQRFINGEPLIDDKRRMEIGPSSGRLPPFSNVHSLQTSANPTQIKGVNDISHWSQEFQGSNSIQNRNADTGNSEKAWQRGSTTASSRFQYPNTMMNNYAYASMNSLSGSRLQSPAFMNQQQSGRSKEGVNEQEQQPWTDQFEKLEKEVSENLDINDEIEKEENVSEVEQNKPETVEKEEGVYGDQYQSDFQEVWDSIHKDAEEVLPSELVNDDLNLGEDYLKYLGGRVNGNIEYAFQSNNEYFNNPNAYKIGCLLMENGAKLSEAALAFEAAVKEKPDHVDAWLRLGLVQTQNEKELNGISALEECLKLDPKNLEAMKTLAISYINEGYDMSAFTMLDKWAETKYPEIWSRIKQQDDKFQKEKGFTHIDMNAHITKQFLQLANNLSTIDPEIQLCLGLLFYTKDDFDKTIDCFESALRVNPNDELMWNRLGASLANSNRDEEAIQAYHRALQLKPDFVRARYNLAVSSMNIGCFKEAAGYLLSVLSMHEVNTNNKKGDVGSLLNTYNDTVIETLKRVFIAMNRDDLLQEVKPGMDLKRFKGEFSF
Described as above. As to conditions: both partners purified.

For “Cat2p: carnitine acetyl-CoA transferase ({FITC}-YNENKRKAKL)”, the import phenotype category result in test [1] is reported as “category 3”. The “targeting priority to peroxisomes” value in test [2] is recorded as “high targeting priority”.

As to “Lys1p: saccharopine dehydrogenase ({FITC}-YARVKRSSRL)”, the import phenotype category result in test [1] is recorded as “category 3”. In addition, in test [2], the “targeting priority to peroxisomes” value is reported as “high targeting priority”.

For “Pcs60p: peroxisomal oxalyl-CoA synthetase, PTS1-protein”, the import phenotype category result in test [1] is “category 1”. Further, the subcellular distribution result in test [3] is on record as “mislocalization”.

B1: Cat2p nonapeptide, FITC-YNENKRKAKL (peptide)
peptide: {FITC}-YNENKRKAKL
notes: tyrosine added to the peptide amino-terminus for concentration measurements; the nine carboxy-terminal residues of Cat2p (carnitine acetyl-CoA transferase), S. cerevisiae; An extra N-terminal tyrosine stands before the natural stretch; also called Cat2p peptide; source: synthetic peptide (GenScript)
What is called Kd is the constant that tells how readily two partners part at equilibrium. As for B1, the Kd in test [4] was found to be 116 nM; in test [5] it was 896 nM.

B2: Pcs60p nonapeptide, FITC-YKSSRNKSKL (peptide)
peptide: {FITC}-YKSSRNKSKL
notes: tyrosine added to the peptide amino-terminus for concentration measurements; the nine carboxy-terminal residues of Pcs60p, S. cerevisiae; An extra N-terminal tyrosine stands before the natural stretch; also called Pcs60p peptide; source: synthetic peptide (GenScript)
As to B2, the Kd in test [4] stood at 643 nM.

B3: Lys1p nonapeptide, FITC-YARVKRSSRL (peptide)
peptide: {FITC}-YARVKRSSRL
notes: tyrosine added to the peptide amino-terminus for concentration measurements; the nine carboxy-terminal residues of Lys1p (saccharopine dehydrogenase), S. cerevisiae; An extra N-terminal tyrosine stands before the natural stretch; also called Lys1p peptide; source: synthetic peptide (GenScript)
Turning to B3, the values for the Kd in test [4] and in test [5] were 88.8 nM and 3690 nM, respectively.

B4: Fox3p: 3-ketoacyl-CoA thiolase, PTS2 import pathway (protein, UniProt P27796 16-417, looked up)
3-ketoacyl-CoA thiolase, …: AMGKGESKRKNSLLEKRPEDVVIVAANRSAIGKGFKGAFKDVNTDYLLYNFLNEFIGRFPEPLRADLNLIEEVACGNVLNVGAGATEHRAACLASGIPYSTPFVALNRQCSSGLTAVNDIANKIKVGQIDIGLALGVESMTNNYKNVNPLGMISSEELQKNREAKKCLIPMGITNENVAANFKISRKDQDEFAANSYQKAYKAKNEGLFEDEILPIKLPDGSICQSDEGPRPNVTAESLSSIRPAFIKDRGTTTAGNASQVSDGVAGVLLARRSVANQLNLPVLGRYIDFQTVGVPPEIMGVGPAYAIPKVLEATGLQVQDIDIFEINEAFAAQALYCIHKLGIDLNKVNPRGGAIALGHPLGCTGARQVATILRELKKDQIGVVSMCIGTGMGAAAIFIKE
Turning to B4, the subcellular distribution entry in test [3] is on record as “mislocalization”.

B5: Mdh3p: peroxisomal malate dehydrogenase (protein, UniProt P32419 2-343, looked up)
Malate dehydrogenase, …: VKVAILGASGGVGQPLSLLLKLSPYVSELALYDIRAAEGIGKDLSHINTNSSCVGYDKDSIENTLSNAQVVLIPAGVPRKPGLTRDDLFKMNAGIVKSLVTAVGKFAPNARILVISNPVNSLVPIAVETLKKMGKFKPGNVMGVTNLDLVRAETFLVDYLMLKNPKIGQEQDKTTMHRKVTVIGGHSGETIIPIITDKSLVFQLDKQYEHFIHRVQFGGDEIVKAKQGAGSATLSMAFAGAKFAEEVLRSFHNEKPETESLSAFVYLPGLKNGKKAQQLVGDNSIEYFSLPIVLRNGSVVSIDTSVLEKLSPREEQLVNTAVKELRKNIEKGKSFILDSSKL
As for B5, in test [1], the import phenotype category entry is given as “category 3”. Moreover, in test [2], the “targeting priority to peroxisomes” value is “high targeting priority”.

B6: Cta1p: protein mislocalized to the cytosol in pex8Δ cells in a previous study (protein, UniProt P15202 2-515, looked up)
Peroxisomal catalase A: SKLGQEKNEVNYSDVREDRVVTNSTGNPINEPFVTQRIGEHGPLLLQDYNLIDSLAHFNRENIPQRNPHAHGSGAFGYFEVTDDITDICGSAMFSKIGKRTKCLTRFSTVGGDKGSADTVRDPRGFATKFYTEEGNLDWVYNNTPVFFIRDPSKFPHFIHTQKRNPQTNLRDADMFWDFLTTPENQVAIHQVMILFSDRGTPANYRSMHGYSGHTYKWSNKNGDWHYVQVHIKTDQGIKNLTIEEATKIAGSNPDYCQQDLFEAIQNGNYPSWTVYIQTMTERDAKKLPFSVFDLTKVWPQGQFPLRRVGKIVLNENPLNFFAQVEQAAFAPSTTVPYQEASADPVLQARLFSYADAHRYRLGPNFHQIPVNCPYASKFFNPAIRDGPMNVNGNFGSEPTYLANDKSYTYIQQDRPIQQHQEVWNGPAIPYHWATSPGDVDFVQARNLYRVLGKQPGQQKNLAYNIGIHVEGACPQIQQRVYDMFARVDKGLSEAIKKVAEAKHASELSSNSKF
In the case of B6, in test [3], the subcellular distribution entry is listed as “mislocalization”.
